One block for each binder: values may come before it. Numbered stars: 1 amine (or outer) side, 2 acyl side, 3 side chain; on linkers, the order of the positions; unused ones are H or OH. * marks the point of attachment. C20 diacid = O=C(O)CCCCCCCCCCCCCCCCCCC(=O)*; C18 diacid = O=C(O)CCCCCCCCCCCCCCCCC(=O)*; γGlu = O=C(O)[C@H](CCC(=O)[*:2])N[*:1]
Target: T1, human amylin receptor (human calcitonin receptor + human RAMP3) (human) (UniProt P30988)
T1 sequence (looked up) 1: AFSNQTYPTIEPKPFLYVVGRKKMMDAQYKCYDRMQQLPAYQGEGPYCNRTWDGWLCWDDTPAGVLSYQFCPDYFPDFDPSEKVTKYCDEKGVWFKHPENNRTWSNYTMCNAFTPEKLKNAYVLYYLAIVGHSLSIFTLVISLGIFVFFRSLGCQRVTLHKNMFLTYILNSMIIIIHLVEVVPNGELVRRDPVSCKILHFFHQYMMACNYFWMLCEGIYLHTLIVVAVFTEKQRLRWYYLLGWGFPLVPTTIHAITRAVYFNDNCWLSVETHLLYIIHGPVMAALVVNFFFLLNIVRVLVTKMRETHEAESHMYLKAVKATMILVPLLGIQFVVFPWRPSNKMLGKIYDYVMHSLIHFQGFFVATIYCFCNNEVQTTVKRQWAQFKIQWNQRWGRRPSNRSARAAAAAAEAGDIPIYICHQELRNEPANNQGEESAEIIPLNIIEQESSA
T1 sequence (looked up) 2: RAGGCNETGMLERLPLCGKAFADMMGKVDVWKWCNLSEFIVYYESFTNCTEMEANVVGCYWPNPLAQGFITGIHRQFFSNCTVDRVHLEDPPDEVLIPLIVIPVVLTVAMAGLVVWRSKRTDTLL
Assay: whole-cell competition vs 125I-rat amylin (Assay Va)

IC50: 92000 pM
B1: [N-terminal(C20 diacid-gGlu), des1, 23Y, 30S, 31G, 33Y, C-terminal(-)]mimylin (peptide)
peptide: {C20 diacid-γGlu}-ASELSTAALGRLSAELHELATYPRTETGSGSY-OH

IC50: 428 pM
B2: [N-terminal(C18 diacid-gGlu), des1, 4Q, 16Q, 30S, 31G]mimylin (peptide)
peptide: {C18 diacid-γGlu}-ASQLSTAALGRLSAQLHELATLPRTETGSGSP-NH2
SMILES: CC(C)C[C@H](NC(=O)[C@H](C)NC(=O)[C@H](C)NC(=O)[C@@H](NC(=O)[C@H](CO)NC(=O)[C@H](CC(C)C)NC(=O)[C@H](CCC(N)=O)NC(=O)[C@H](CO)NC(=O)[C@H](C)NC(=O)CC[C@H](NC(=O)CCCCCCCCCCCCCCCCC(=O)O)C(=O)O)[C@@H](C)O)C(=O)NCC(=O)N[C@@H](CCCNC(=N)N)C(=O)N[C@@H](CC(C)C)C(=O)N[C@@H](CO)C(=O)N[C@@H](C)C(=O)N[C@@H](CCC(N)=O)C(=O)N[C@@H](CC(C)C)C(=O)N[C@@H](Cc1c[nH]cn1)C(=O)N[C@@H](CCC(=O)O)C(=O)N[C@@H](CC(C)C)C(=O)N[C@@H](C)C(=O)N[C@H](C(=O)N[C@@H](CC(C)C)C(=O)N1CCC[C@H]1C(=O)N[C@@H](CCCNC(=N)N)C(=O)N[C@H](C(=O)N[C@@H](CCC(=O)O)C(=O)N[C@H](C(=O)NCC(=O)N[C@@H](CO)C(=O)NCC(=O)N[C@@H](CO)C(=O)N1CCC[C@H]1C(N)=O)[C@@H](C)O)[C@@H](C)O)[C@@H](C)O

IC50: 1920 pM
B3: [N-terminal(C20 diacid-gGlu), -1E, 1A, 23Y, 30S, 31G]mimylin (peptide)
peptide: {C20 diacid-γGlu}-EAASELSTAALGRLSAELHELATYPRTETGSGSP-NH2
SMILES: CC(C)C[C@H](NC(=O)[C@H](C)NC(=O)[C@H](C)NC(=O)[C@@H](NC(=O)[C@H](CO)NC(=O)[C@H](CC(C)C)NC(=O)[C@H](CCC(=O)O)NC(=O)[C@H](CO)NC(=O)[C@H](C)NC(=O)[C@H](C)NC(=O)[C@H](CCC(=O)O)NC(=O)CC[C@H](NC(=O)CCCCCCCCCCCCCCCCCCC(=O)O)C(=O)O)[C@@H](C)O)C(=O)NCC(=O)N[C@@H](CCCNC(=N)N)C(=O)N[C@@H](CC(C)C)C(=O)N[C@@H](CO)C(=O)N[C@@H](C)C(=O)N[C@@H](CCC(=O)O)C(=O)N[C@@H](CC(C)C)C(=O)N[C@@H](Cc1c[nH]cn1)C(=O)N[C@@H](CCC(=O)O)C(=O)N[C@@H](CC(C)C)C(=O)N[C@@H](C)C(=O)N[C@H](C(=O)N[C@@H](Cc1ccc(O)cc1)C(=O)N1CCC[C@H]1C(=O)N[C@@H](CCCNC(=N)N)C(=O)N[C@H](C(=O)N[C@@H](CCC(=O)O)C(=O)N[C@H](C(=O)NCC(=O)N[C@@H](CO)C(=O)NCC(=O)N[C@@H](CO)C(=O)N1CCC[C@H]1C(N)=O)[C@@H](C)O)[C@@H](C)O)[C@@H](C)O

IC50: 812 pM
B4: [N-terminal(C18 diacid-gGlu), des1, 5V, 9V, 30S, 31G]mimylin (peptide)
peptide: {C18 diacid-γGlu}-ASEVSTAVLGRLSAELHELATLPRTETGSGSP-NH2

IC50: 653 pM
B5: [N-terminal(C18 diacid-gGlu), des1, 6T, 9V, 30S, 31G]mimylin (peptide)
peptide: {C18 diacid-γGlu}-ASELTTAVLGRLSAELHELATLPRTETGSGSP-NH2
SMILES: CC(C)C[C@H](NC(=O)[C@H](CCC(=O)O)NC(=O)[C@H](Cc1c[nH]cn1)NC(=O)[C@H](CC(C)C)NC(=O)[C@H](CCC(=O)O)NC(=O)[C@H](C)NC(=O)[C@H](CO)NC(=O)[C@H](CC(C)C)NC(=O)[C@H](CCCNC(=N)N)NC(=O)CNC(=O)[C@H](CC(C)C)NC(=O)[C@@H](NC(=O)[C@H](C)NC(=O)[C@@H](NC(=O)[C@@H](NC(=O)[C@H](CC(C)C)NC(=O)[C@H](CCC(=O)O)NC(=O)[C@H](CO)NC(=O)[C@H](C)NC(=O)CC[C@H](NC(=O)CCCCCCCCCCCCCCCCC(=O)O)C(=O)O)[C@@H](C)O)[C@@H](C)O)C(C)C)C(=O)N[C@@H](C)C(=O)N[C@H](C(=O)N[C@@H](CC(C)C)C(=O)N1CCC[C@H]1C(=O)N[C@@H](CCCNC(=N)N)C(=O)N[C@H](C(=O)N[C@@H](CCC(=O)O)C(=O)N[C@H](C(=O)NCC(=O)N[C@@H](CO)C(=O)NCC(=O)N[C@@H](CO)C(=O)N1CCC[C@H]1C(N)=O)[C@@H](C)O)[C@@H](C)O)[C@@H](C)O

From US20160272683A1 (Novo Nordisk, published 2016)
